Target: T1, Ac-LRSR-amc
T1 chain: LRSR

B1: recombinant purified GST-Malt1 protein, oligomerized by binding to glutathione sepharose (protein)
chain: MSLLGDPLQALPPSAAPTGPLLAPPAGATLNRLREPLLRRLSELLDQAPEGRGWRRLAELAGSRGRLRLSCLDLEQCSLKVLEPEGSPSLCLLKLMGEKGCTVTELSDFLQAMEHTEVLQLLSPPGIKITVNPESKAVLAGQFVKLCCRATGHPFVQYQWFKMNKEIPNGNTSELIFNAVHVKDAGFYVCRVNNNFTFEFSQWSQLDVCDIPESFQRSVDGVSESKLQICVEPTSQKLMPGSTLVLQCVAVGSPIPHYQWFKNELPLTHETKKLYMVPYVDLEHQGTYWCHVYNDRDSQDSKKVEIIIGRTDEAVECTEDELNNLGHPDNKEQTTDQPLAKDKVALLIGNMNYREHPKLKAPLVDVYELTNLLRQLDFKVVSLLDLTEYEMRNAVDEFLLLLDKGVYGLLYYAGHGYENFGNSFMVPVDAPNPYRSENCLCVQNILKLMQEKETGLNVFLLDMCRKRNDYDDTIPILDALKVTANIVFGYATCQGAEAFEIQHSGLANGIFMKFLKDRLLEDKKITVLLDEVAEDMGKCHLTKGKQALEIRSSLSEKRALTDPIQGTEYSAESLVRNLQWAKAHELPESMCLKFDCGVQIQLGFAAEFSNVMIIYTSIVYKPPEIIMCDAYVTDFPLDLDIDPKDANKGTPEETGSYLVSKDLPKHCLYTRLSSLQKLKEHLVFTVCLSYQYSGLEDTVEDKQEVNVGKPLIAKLDMHRGLGRKTCFQTCLMSNGPYQSSAATSGGAGHYHSLQDPFHGVYHSHPGNPSNVTPADSCHCSRTPDAFISSFAHHASCHFSRSNVPVETTDEIPFSFSDRLRISEK
In the case of B1, the “LRSR-amc cleavage activity of recombinant enzyme (fluorescence)” value is reported as “recombinant purified GST-Malt1 protein, oligomerized by binding to glutathione sepharose, was tested for LRSR-amc clavage activity”.

From patent US20100184709
